{"source": "patent US6376653", "about": "(GlaxoSmithKline, dated 2002)", "biological_target": "T1, recombinant Tie2 extracellular domain-Fc fusion (UniProt Q02763 23-748, limits assumed)", "T1 construct": "extracellular domain; also called Tie2-Fc; Tie2 receptor-Fc fusion; not shown: Fc part", "T1 sequence (Q02763 23-748 limits assumed)": "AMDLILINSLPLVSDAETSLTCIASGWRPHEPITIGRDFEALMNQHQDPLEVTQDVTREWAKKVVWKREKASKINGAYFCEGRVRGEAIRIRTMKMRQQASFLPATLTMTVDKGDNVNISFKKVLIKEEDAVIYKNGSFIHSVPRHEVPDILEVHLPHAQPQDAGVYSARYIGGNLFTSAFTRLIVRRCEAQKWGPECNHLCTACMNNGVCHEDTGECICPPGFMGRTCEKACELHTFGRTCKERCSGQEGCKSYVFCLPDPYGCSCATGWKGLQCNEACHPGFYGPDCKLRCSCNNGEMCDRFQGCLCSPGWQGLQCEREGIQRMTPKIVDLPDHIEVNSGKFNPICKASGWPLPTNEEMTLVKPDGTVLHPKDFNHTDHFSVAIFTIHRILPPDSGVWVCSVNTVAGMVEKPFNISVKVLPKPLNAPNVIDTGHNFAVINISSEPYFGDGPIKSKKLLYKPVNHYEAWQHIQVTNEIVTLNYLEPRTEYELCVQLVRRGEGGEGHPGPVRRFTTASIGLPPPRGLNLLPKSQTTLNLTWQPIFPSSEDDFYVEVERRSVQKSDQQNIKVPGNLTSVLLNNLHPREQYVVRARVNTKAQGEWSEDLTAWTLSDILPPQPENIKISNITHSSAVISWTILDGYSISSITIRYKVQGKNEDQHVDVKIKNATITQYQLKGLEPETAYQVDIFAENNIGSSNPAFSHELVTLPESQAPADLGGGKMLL", "experiment": "BIAcore SPR, purified mAb captured on rabbit anti-mouse IgG Fc, Tie2-Fc injected", "procedure": "The affinity of the purified mAbs was measured in the BIAcore. Using a flow rate of 10 μl/min, the mAb (diluted in HBS buffer) was injected over a rabbit anti-mouse IgG Fc surface, followed by buffer flow and the RU recorded. Tie2-Fc diluted in HBS buffer was then injected for 120 s followed by buffer flow for 240 s and regeneration of the sensor chip surface with an injection of 15 μl 0.1 M phosphoric acid. BIAcore software was used for association and dissociation-phase analysis. The murine monoclonal antibodies bound to soluble monomeric Tie2 receptor. The on-rates ($kass$) and off-rates ($kdiss$) were calculated."}
{"binder": "monoclonal antibody 12H8 (antibody, V domains shown, also called mAb 12H8) VH: EVQLVESGGGLVKPGGSLKLSCAASGFTFSDYGMHWVRQAPEKGLEWVAYINSGSSTITYADTVKGRFTISRDNAKNTLFLQMTSLRSEDTAIYYCARGYYGPYYFDYWGQGTALTVSS VL: DIVMTQSHKFMSTSVGDRVSFTCKASQNVGTAVAWYQQKPGQSPKLLIYWASSRHTGVPDRFTGSGSGTDFTLTITNVQSEDLADYFCQEYSSYPLTFGVGTKLELK", "values": [{"measurement": "Kd", "result": "< 0.1", "unit": "nM"}]}
